Laboratory results: publication PMC10319729 (Scientific Reports, 2023)

Target: T1, LGR4 (HA-LGR4) over-expressed on HEK293 cells (UniProt Q9BXB1 25-951)
T1 construct: Plasmid and cell line described in earlier work; also called HEK293-LGR4; full-length LGR4; source: HEK293 cells over-expressing the receptor (HEK293-LGR4), on cells
Experiment: whole-cell binding, fluorescence plate reader; His-tagged ligand in 3x serial dilution on cells in 96-well plates, on ice 1 h, washed, fixed with 4.2% paraformaldehyde, Alexa488-labeled anti-His antibody; half-maximum binding (KD) from a three-parameter dose-response fit
Settings: one partner purified

B1: R2FuTSP-His (RSPO2 furin domain with TSP domain, His-tagged) (domain or fragment, UniProt Q6UXX9 22-205, looked up)
chain: QGNRWRRSKRASYVSNPICKGCLSCSKDNGCSRCQQKLFFFLRREGMRQYGECLHSCPSGYYGHRAPDMNRCARCRIENCDSCFSKDFCTKCKVGFYLHRGRCFDECPDGFAPLEETMECVEGCEVGHWSEWGTCSRNNRTCGFKWGLETRTRQIVKKPVKDTILCPTIAESRRCKMTMRHCPG
notes: R-spondin 2 (RSPO2), furin domain with the thrombospondin-like (TSP) domain; source: bought: R&D Systems
B1 showed a Kd of 2.2 ± 0.3 nM.
